According to the supplement of paper PMC10567573:
± gives the standard deviation.

Experiment: protein stability index of a GFP-peptide fusion (GPS, HEK-293T) (PSI 1-6); higher = more stable
[1] = treatment: DMSO, c terminus: a fixed tail appended
[2] = treatment: MLN4924 1 uM, 8 h, c terminus: a fixed tail appended
[3] = treatment: DMSO, c terminus: native
[4] = treatment: MLN4924 1 uM, 8 h, c terminus: native
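Also: 24-mer peptide tiles fused after GFP, lentivirally expressed, FACS-sorted into six equal bins by GFP/DsRed ratio, decoded by Illumina sequencing, PSI is the read-weighted mean bin number.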

Q: With HTDIKPENILMCVDDAYVRRMAAE [SRPK2] as the sequence, how does the protein stability index [1] read?
A: Its protein stability index is 4 ± 0.22.

Q: And the protein stability index [2]?
A: Its protein stability index is 4.07 ± 0.27.

Q: For IIVRTTNKKYYKKFSIPDLDRHQL [DPCD], which protein stability index [1] is on record?
A: The protein stability index was 2.29 ± 0.55.

Q: What about the protein stability index [2] of the same sequence?
A: Its protein stability index is 2.14 ± 0.29.

Q: For ALVETSYVKVLHHMVKISGGPHIS [MAGEA3], which protein stability index [1] is on record?
A: Its protein stability index is 2.8 ± 0.52.

Q: And the protein stability index [2]?
A: The protein stability index was 2.82 ± 0.78.

Q: What does the source list for GQTYVDAGYEVDKIAQNLDFVNLM [CHIT1]?
A: protein stability index [1]: 3.01 ± 0.27; protein stability index [2]: 3.23 ± 0.45

Q: For LDPVLQAPGTGPAQTELLCCLVKM [FANCE], which protein stability index [1] is on record?
A: Its protein stability index is 2.47 ± 0.32.

Q: And the protein stability index [2]?
A: Its protein stability index is 2.32 ± 0.49.

Q: Which results are given for HRMVVKIGDFGISKILSSKSKAYT [NEK8]?
A: protein stability index [1]: 2.33 ± 0.084; protein stability index [2]: 2.14 ± 0.12

Q: Which protein stability index [1] does the source give for YGPRWQEVIPYTPAMQRYVKRLHE [HMOX1] here?
A: Its protein stability index is 3.09 ± 0.4.

Q: What about the protein stability index [2] of the same sequence?
A: The protein stability index was 3.4 ± 0.24.

Q: Which protein stability index [1] does the source give for FPKDTLMNLHVYISEHEHFTDFNA [CLPTM1] here?
A: The protein stability index was 2.37 ± 0.24.

Q: What about the protein stability index [2] of the same sequence?
A: Its protein stability index is 1.99 ± 0.42.

Q: With EAETPPNGPDCGYGSFHQQYWLDG [ATE1] as the sequence, how does the protein stability index [1] read?
A: Its protein stability index is 3.89 ± 0.31.

Q: What about the protein stability index [2] of the same sequence?
A: Its protein stability index is 4.15 ± 0.11.

Q: For TLALEALVQLRGRLTSQDWERVHL [ALG2], which protein stability index [1] is on record?
A: The protein stability index was 2.24 ± 0.27.

Q: And the protein stability index [2]?
A: The protein stability index was 2.32 ± 0.24.

Q: Which protein stability index [1] does the source give for RMQVLKRQVQSLMVHQRKLEAELL [SMARCE1] here?
A: The protein stability index was 2.17 ± 0.27.

Q: And the protein stability index [2]?
A: Its protein stability index is 2.6 ± 0.45.

Q: Which protein stability index [1] does the source give for FRLKTINLQSLINNEIPDCYTFSV [MCOLN1] here?
A: The protein stability index was 2.76 ± 0.41.

Q: What about the protein stability index [2] of the same sequence?
A: Its protein stability index is 2.51 ± 0.39.

Q: Which protein stability index [1] does the source give for EPHGKMFNEQTWEVSQQDPSHGEV [ZSCAN9] here?
A: The protein stability index was 5.06 ± 0.16.

Q: What about the protein stability index [2] of the same sequence?
A: Its protein stability index is 5.04 ± 0.18.

Q: With CTEGPIDLVFVIDGSKSLGEENFE [MATN2] as the sequence, how does the protein stability index [1] read?
A: Its protein stability index is 2.72 ± 0.29.

Q: And the protein stability index [2]?
A: The protein stability index was 2.52 ± 0.59.

Q: For LPRGATAAVLAPDSSNASSEPSS [SEPHS2], which protein stability index [3] is on record?
A: The protein stability index was 5.31 ± 0.21.

Q: What about the protein stability index [4] of the same sequence?
A: Its protein stability index is 5.53 ± 0.17.

Q: Which results are given for NEIFTQLYRTLFSVINNGHNQKVH [PDS5B]?
A: protein stability index [1]: 2.24 ± 0.47; protein stability index [2]: 2.47 ± 0.56

Q: Which protein stability index [1] does the source give for LIIQAGIKEVIFMSDKYHDSDEAT [DCTD] here?
A: Its protein stability index is 2.16 ± 0.28.

Q: What about the protein stability index [2] of the same sequence?
A: Its protein stability index is 2.08 ± 0.089.

Q: Which protein stability index [1] does the source give for IYQGEDLPHPKSMLQATAEANNLA [ATL3] here?
A: Its protein stability index is 4.25 ± 0.23.

Q: And the protein stability index [2]?
A: The protein stability index was 4.332 ± 0.041.

Q: Which protein stability index [1] does the source give for RLFQVVGKTDDTLALLNLACMMTI [TMEM175] here?
A: The protein stability index was 2.92 ± 0.53.

Q: What about the protein stability index [2] of the same sequence?
A: Its protein stability index is 2.65 ± 0.56.

Q: For YKKIYFCHSCQLYLPSTEFSVSST [IQUB], which protein stability index [1] is on record?
A: Its protein stability index is 2.39 ± 0.23.

Q: What about the protein stability index [2] of the same sequence?
A: The protein stability index was 2.08 ± 0.22.

Q: With NPIIYSFRNPDVQSAIWRMLTGRR [OR3A1] as the sequence, how does the protein stability index [1] read?
A: The protein stability index was 2.51 ± 0.41.

Q: What about the protein stability index [2] of the same sequence?
A: The protein stability index was 2.58 ± 0.36.

Q: Which results are given for LRVHLKMVDSFHRTSLQYGIMCLK [PPFIA4]?
A: protein stability index [1]: 2.99 ± 0.047; protein stability index [2]: 2.9 ± 1

Q: For ISENLDYEETGFYEIEIQAEDGGA [PCDHGA10], which protein stability index [1] is on record?
A: The protein stability index was 4.74 ± 0.18.

Q: What about the protein stability index [2] of the same sequence?
A: The protein stability index was 4.7 ± 0.2.

Q: Which protein stability index [1] does the source give for RQEAIYEMSRGEQDLIEDLKLARK [NET1] here?
A: The protein stability index was 4.69 ± 0.18.

Q: And the protein stability index [2]?
A: Its protein stability index is 4.79 ± 0.099.

Q: With PEFIKVRENLRRIATLTSEEREL [FAM107A] as the sequence, how does the protein stability index [3] read?
A: The protein stability index was 2.66 ± 0.5.

Q: And the protein stability index [4]?
A: The protein stability index was 3.35 ± 0.55.

Q: Which protein stability index [2] does the source give for GKLKAPPKPCAGNQGTQITVEDLF [MLH1] here?
A: Its protein stability index is 3.65 ± 0.42.

Q: Which results are given for CTRDCMSFSVLNWDQVSRLHEVLT [TENT5C]?
A: protein stability index [1]: 2.13 ± 0.35; protein stability index [2]: 2.37 ± 0.23

Q: Which results are given for AGHRRPAGGIRESKESSKEKKLTV [C22orf31]?
A: protein stability index [1]: 5.05 ± 0.41; protein stability index [2]: 4.86 ± 0.38

Q: What does the source list for IKGLQRKERLKPAHIHLQQLTCFS [KRT34]?
A: protein stability index [1]: 2.3 ± 0.39; protein stability index [2]: 2.36 ± 0.37

Q: With LSNLTHVLYPVPLESYEDIHGTLH [PRAME] as the sequence, how does the protein stability index [1] read?
A: Its protein stability index is 2.5 ± 0.3.

Q: What about the protein stability index [2] of the same sequence?
A: The protein stability index was 2.69 ± 0.27.

Q: Which results are given for DAAVVRPGFLSTAEEETLSRELEP [ALKBH7]?
A: protein stability index [1]: 5.53 ± 0.063; protein stability index [2]: 5.42 ± 0.17

Q: With YLIRVDGKGSIKELFPTGKQLEPL [VPS39] as the sequence, how does the protein stability index [1] read?
A: Its protein stability index is 2.49 ± 0.23.

Q: What about the protein stability index [2] of the same sequence?
A: The protein stability index was 2.21 ± 0.23.

Q: What does the source list for RDPQAVKERALSAPWLSLFPPEGN [ZNF263]?
A: protein stability index [1]: 3.06 ± 0.27; protein stability index [2]: 3.14 ± 0.33

Q: With RQWPTKSQTDRGASAGKRRCFWLG [SDE2] as the sequence, how does the protein stability index [1] read?
A: The protein stability index was 2.9 ± 0.24.

Q: What about the protein stability index [2] of the same sequence?
A: The protein stability index was 3.19 ± 0.58.

Q: With RYCDSILREMLSKKHAAYAWPFYK [BRD3] as the sequence, how does the protein stability index [1] read?
A: The protein stability index was 2.07 ± 0.48.

Q: And the protein stability index [2]?
A: Its protein stability index is 2.02 ± 0.26.

Q: With SNQIPTEVRSKAEEVVSFVKKNVL [FUNDC2] as the sequence, how does the protein stability index [1] read?
A: Its protein stability index is 3.59 ± 0.32.

Q: And the protein stability index [2]?
A: The protein stability index was 3.73 ± 0.18.
